Drawing on patent publication US20200297842A1 (published 2020), this text covers Kd, binding result and IC50 for 13 molecules.

Bounds are passed on as bounds.

Test [1] deals with T1, Fc tagged human SIRPα (ACRO # SIG-H5251, genotype variant 1) (human, UniProt P78324 31-370, limits assumed).
T1 construct: Bought protein; also called Fc tagged human SIRP alpha; recombinant human SIRPα; not shown: Fc tag
Description: ELISA, plate-coated Fc tagged human SIRPα; apparent Kd. Here is the method:
The binding of anti-SIRP monoclonal antibodies (mAbs) of the present disclosure to SIRP alpha (SIRPα) was determined by solid phase ELISA using an Fc tagged human SIRP alpha. Binding by soluble anti-SIRP antibodies was measured in vitro.
Fc tagged human SIRPα (ACRO # SIG-H5251, genotype variant 1) is adsorbed to high-binding microtiter plates at a concentration of 1 μg/ml diluted in phosphate buffered saline (PBS) overnight at 4° C. The coating solution is removed, the wells are washed and then blocked with 75% casein in PBS containing 0.5% Tween 20 (PBST) for 60 minutes at room temperature while shaking. Blocking solution is removed, the wells are washed and incubated for 60 minutes at room temperature while shaking with either murine or human anti-SIRP mAbs diluted in PBST at a starting concentration of 30 μg/ml and reducing the concentration in 3-fold serial dilutions. Wells are washed three times with PBST and incubated for 60 minutes at room temperature while shaking with an HRP-labeled donkey anti-mouse or anti-human secondary antibody (Jackson ImmunoResearch Laboratories) diluted 1:10,000 in PBST. The wells are washed and then incubated with peroxidase substrate and the absorbance at 450 nm measured. The apparent affinities were calculated using a non-linear fit model (GraphPad Prism).
For orientation: An ELISA detects its analyte on a solid surface through an enzyme-linked reagent.

For test [2], the target named is T2, Fc tagged human SIRPγ (ACRO # SIG-H5253) (human, UniProt Q9P1W8 29-360).
T2 construct: Bought protein; it includes the transmembrane and cytoplasmic part, which a soluble Fc fusion would not carry; also called Fc tagged human SIRP gamma; recombinant human SIRP gamma; not shown: Fc tag
Put plainly: ELISA, plate-coated Fc tagged human SIRPγ; apparent Kd. Here is the method: The binding of anti-SIRP antibodies of the present disclosure to SIRP gamma (SIRPγ) was determined by ELISA using an Fc tagged human SIRPγ. Binding by soluble anti-SIRP antibodies was measured in vitro.
(§1) Fc tagged human SIRPγ (ACRO # SIG-H5253) is adsorbed to high-binding microtiter plates at a concentration of 1 μg/ml in phosphate buffered saline (PBS) overnight at 4° C. The coating solution is removed, the wells are washed and then blocked with 75% casein in PBS containing 0.5% Tween 20 (PBST) for 60 minutes at room temperature while shaking. Blocking solution is removed, the wells are washed and incubated for 60 minutes at room temperature while shaking with anti-SIRP mAbs diluted in PBST at a starting concentration of 30 μg/ml and reducing the concentration in 3-fold serial dilutions. Wells are washed three times with PBST and incubated for 60 minutes at room temperature while shaking with an HRP labeled donkey anti-mouse or anti-human secondary antibody (Jackson ImmonResearch Laboratories) diluted 1:10,000 in PBST. The wells are washed and then incubated with peroxidase substrate and the absorbance at 450 nm determined. The apparent affinities were calculated using a non-linear fit model (GraphPad Prism).

In test [3] the target is T2, Fc tagged human SIRPγ (ACRO # SIG-H5253). Put plainly: ELISA, plate-coated Fc tagged human SIRPγ. On the procedure: as §1
For test [4] the target is unchanged. Description: blocking ELISA: mAb with human SIRPγ (ACRO # SIG-H5253) on plate-coated HIS tagged human CD47. Here is the method: HIS tagged human CD47 (ACRO # CD7-H5227) is adsorbed to high-binding microtiter plates at a concentration of 2 μg/ml diluted in PBS overnight at 4° C. The coating solution is removed, the wells are washed and then blocked with 75% casein in PBS containing 0.5% Tween 20 (PBST) for 60 minutes at room temperature while shaking. Blocking solution is removed, the wells are washed and incubated for 60 minutes at room temperature while shaking with anti-SIRP mAbs diluted in PBST at a starting concentration of 30 μg/ml and reducing the concentration in 3 fold serial dilutions and 0.5 μg/ml of human SIRPγ (ACRO # SIG-H5253). Wells are washed three times with PBST and incubated for 60 minutes at room temperature while shaking with an HRP labeled donkey anti-mouse or anti-human secondary antibody (Jackson ImmunoResearch Laboratories) diluted 1:20,000 in PBST. The wells are washed and then incubated with peroxidase substrate and the absorbance at 450 nm determined. The IC₅₀ was calculated using a non-linear fit model (GraphPad Prism).

T1 sequence (P78324 31-370 limits assumed, change not shown, form in doubt): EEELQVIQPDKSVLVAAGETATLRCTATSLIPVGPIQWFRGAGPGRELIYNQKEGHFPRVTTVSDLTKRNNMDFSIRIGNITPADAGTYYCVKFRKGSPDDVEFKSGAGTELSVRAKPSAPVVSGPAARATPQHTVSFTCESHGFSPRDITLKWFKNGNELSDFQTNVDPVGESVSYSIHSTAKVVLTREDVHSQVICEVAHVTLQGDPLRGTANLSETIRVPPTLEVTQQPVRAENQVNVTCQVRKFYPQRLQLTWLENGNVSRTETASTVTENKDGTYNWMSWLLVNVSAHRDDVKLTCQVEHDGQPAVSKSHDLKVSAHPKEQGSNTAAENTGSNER
T2 sequence (Q9P1W8 29-360 limits assumed): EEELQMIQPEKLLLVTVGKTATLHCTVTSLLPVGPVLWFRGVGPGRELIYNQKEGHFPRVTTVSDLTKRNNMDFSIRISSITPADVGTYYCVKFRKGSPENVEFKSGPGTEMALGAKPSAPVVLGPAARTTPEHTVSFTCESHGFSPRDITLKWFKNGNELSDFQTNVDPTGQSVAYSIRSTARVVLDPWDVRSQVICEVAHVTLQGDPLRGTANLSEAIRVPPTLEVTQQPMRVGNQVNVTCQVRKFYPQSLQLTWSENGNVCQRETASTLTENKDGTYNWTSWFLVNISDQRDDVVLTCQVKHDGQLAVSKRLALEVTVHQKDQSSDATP

B1: SIRP11 (antibody, human IgG4 S228P, kappa, V domains shown)
VH: QVQLVQSGAEVKKPGASVKVSCKASGYSFTDYFLNWVRQAPGQGLEWMGRINPYNGDSFINQNFRDRVTMTRDTSTSTVYMELSSLRSEDTAVYYCARGGYDGYFIAYFDYWGAGTTVTVSS
VL: DIQMTQSPSSLSASVGDRVTITCKASQDINSHLSWYQQKPGKAPKLLIYRANRLATGVPSRFSGSGSGTDFTFTISSLQPEDIATYYCLQYDEFPYTFGGGTKLEIKR
notes: shares the heavy-chain CDRs of SIRP4
With B1, the Kd in test [1] worked out at 0.194 nM; in test [2] it was 7.22 nM.

B2: SIRP17 (antibody, human IgG4 S228P, kappa, V domains shown)
VH: EVQLVQSGAEVKKPGESLKISCKGSGYSFTDYFLNWVRQMPGKGLEWMGRINPYNGDSFINQNFRDQVTISADKSISTAYLQWSSLKASDTAMYYCARGGYDGYFIAYFDYWGAGTTVTVSS
VL: DIQMTQSPSSLSASVGDRVTITCKASQDINSHLSWYQQKPGKAPKLLIYRANRLATGVPSRFSGSGSGTDFTFTISSLQPEDIATYYCLQYDEFPYTFGGGTKLEIKR
On to B2, for which the Kd in test [1] is 0.326 nM; in test [2], above 15 nM.

B3: SIRP16 (antibody, human IgG4 S228P, kappa, V domains shown)
VH: QVQLVQSGAEVKKPGSSVKVSCKASGYSFTDYFLNWVRQAPGQGLEWMGRINPYNGDSFINQNFRDRVTITADKSTSTAYMELSSLRSEDTAVYYCARGGYDGYFIAYFDYWGAGTTVTVSS
VL: DIQMTQSPSSLSASVGDRVTITCKASQDINSHLSWYQQKPGKAPKLLIYRANRLATGVPSRFSGSGSGTDFTFTISSLQPEDIATYYCQQYDEFPYTFGGGTKLEIKR
For B3, the Kd in test [1] is above 40 nM.

B4: SIRP12 (antibody, human IgG4 S228P, kappa, V domains shown)
VH: QVQLVQSGAEVKKPGASVKVSCKASGYSFTDYFLNWVRQAPGQGLEWMGRINPYNGDSFINQNFRDRVTMTRDTSTSTVYMELSSLRSEDTAVYYCARGGYDGYFIAYFDYWGAGTTVTVSS
VL: DIQMTQSPSSLSASVGDRVTITCKASQDINSHLSWYQQKPGKAPKLLIYRANRLATGVPSRFSGSGSGTDFTFTISSLEYEDIATYYCLQYDEFPYTFGGGTKLEIKR
As for B4, the Kd in test [1] was 0.165 nM; in test [2], above 12 nM.

B5: SIRP18 (antibody, human IgG4 S228P, kappa, V domains shown)
VH: EVQLVQSGAEVKKPGESLKISCKGSGYSFTDYFLNWVRQMPGKGLEWMGRINPYNGDSFINQNFRDQVTISADKSISTAYLQWSSLKASDTAMYYCARGGYDGYFIAYFDYWGAGTTVTVSS
VL: DIQMTQSPSSLSASVGDRVTITCKASQDINSHLSWYQQKPGKAPKLLIYRANRLATGVPSRFSGSGSGTDFTFTISSLEYEDIATYYCLQYDEFPYTFGGGTKLEIKR
Turning to B5, the Kd in test [1] is 0.364 nM; in test [2], above 34 nM.

B6: SIRP15 (antibody, human IgG4 S228P, kappa, V domains shown)
VH: QVQLVQSGAEVKKPGSSVKVSCKASGYSFTDYFLNWVRQAPGQGLEWMGRINPYNGDSFINQNFRDRVTITADKSTSTAYMELSSLRSEDTAVYYCARGGYDGYFIAYFDYWGAGTTVTVSS
VL: DIQMTQSPSSLSASVGDRVTITCKASQDINSHLSWYQQKPGKAPKLLIYRANRLATGVPSRFSGSGSGTDFTFTISSLEYEDIATYYCLQYDEFPYTFGGGTKLEIKR
On to B6, for which the Kd in test [1] was 0.608 nM; in test [2], above 14 nM.

B7: SIRP20 (antibody, human IgG4 S228P, kappa, V domains shown)
VH: QVQLVQSGAEVKKPGASVKVSCKASGYSFTDYFLNWVRQAPGQGLEWMGRINPYNGDSFINQNFRDRVTMTVDTSTSTVYMELSSLRSEDTAVYYCARGGYDGYFIAYFDYWGAGTTVTVSS
VL: DIQMTQSPSSLSASVGDRVTITCKASQDINSHLSWYQQKPGKAPKLLIYRANRLATGVPSRFSGSGSGTDFTFTISSLQPEDIATYYCLQYDEFPYTFGGGTKLEIKR
Consider B7, for which the Kd in test [1] is 0.157 nM; in test [2], above 29 nM.

B8: SIRP13 (antibody, human IgG4 S228P, kappa, V domains shown)
VH: QVQLVQSGAEVKKPGASVKVSCKASGYSFTDYFLNWVRQAPGQGLEWMGRINPYNGDSFINQNFRDRVTMTRDTSTSTVYMELSSLRSEDTAVYYCARGGYDGYFIAYFDYWGAGTTVTVSS
VL: DIQMTQSPSSLSASVGDRVTITCKASQDINSHLSWYQQKPGKAPKLLIYRANRLATGVPSRFSGSGSGTDFTFTISSLQPEDIATYYCQQYDEFPYTFGGGTKLEIKR
Turning to B8, the binding result in test [3] is reported as “no binding (tested: 30 µg/ml)”. In test [1], the Kd amounted to 1.56 nM.

B9: SIRP14 (antibody, human IgG4 S228P, kappa, V domains shown)
VH: QVQLVQSGAEVKKPGSSVKVSCKASGYSFTDYFLNWVRQAPGQGLEWMGRINPYNGDSFINQNFRDRVTITADKSTSTAYMELSSLRSEDTAVYYCARGGYDGYFIAYFDYWGAGTTVTVSS
VL: DIQMTQSPSSLSASVGDRVTITCKASQDINSHLSWYQQKPGKAPKLLIYRANRLATGVPSRFSGSGSGTDFTFTISSLQPEDIATYYCLQYDEFPYTFGGGTKLEIKR
As to B9, in test [3], the binding result is given as “no binding (tested: 30 µg/ml)”. The Kd in test [1] was 0.565 nM.

B10: SIRP21 (antibody, human IgG4 S228P, kappa, V domains shown)
VH: QVQLVQSGAEVKKPGASVKVSCKASGYSFTDYFLNWVRQAPGQGLEWMGRINPYNGDSFINQNFRDRVTMTVDTSTSTVYMELSSLRSEDTAVYYCARGGYDGYFIAYFDYWGAGTTVTVSS
VL: DIQMTQSPSSLSASVGDRVTITCKASQDINSHLSWYQQKPGKAPKLLIYRANRLATGVPSRFSGSGSGTDFTFTISSLEYEDIATYYCLQYDEFPYTFGGGTKLEIKR
With B10, the Kd in test [1] is 0.274 nM; in test [2], above 21 nM.

B11: SIRP23 (antibody, human IgG4 S228P, kappa, V domains shown)
VH: EVQLQQSGPDLVKPGASVKISCKASGYSFTDYFLNWVKQSHGKSLEWIGRINPYNGDSFINQNFRDKATLTVDKSSTTAHMDLLSLTSEDSAIYYCGRGGYDGYFIAYFDYWGQGSLVTVSA
VL: DIKMTQSPSSMYASLGQRVTITCKASQDINSHLSWFQEKPGKSPKTLIYRANRLADGVPSRFSGSGSGQDYFLTISSLEYEDVGIYYCLQYDEFPYTFGGGTKLEIKR
Take B11: the Kd in test [1] amounted to 0.164 nM; in test [2] it was 0.225 nM.

B12: SIRP10 (antibody, V domains shown)
VH: EVQLQESGAELVRPGTSVKMSCKAAGYTFSNYLIGWIKQRPGHGLEWIGDIYPGDNNTNYNEKFRVKATLTADTSSNTAYMHLTSLTSEDSAIYYCAGGTDYDGFANWGQGTLVTVSA
VL: ENVLTQSPAIMSASLGEKVTMSCRASSSVNYMYWYQQKSDASPKLWIYYTSKLAPGVPARFSGSGSGNSYSLTISSMEGEDAATYYCQQFTSSPFTFGSGTKLEIK
As for B12, the Kd in test [1] and in test [2] was above 10 nM each time.

B13: SIRP6 (antibody, V domains shown)
VH: QIQLVQSGPELKKPGETVKISCKASGYTFTDYGVNWVKQGPGKDLQWMGWVNTNTRESTYVEDFKGRFAFSLETSASTAYLQINNLKNEDSSTYFCARGAYDAYYYYYGMDYWGQGTSVTVSS
VL: DIQMTQSPASLSASVGETVTITCRASENIYSYLTWYKQKQGKSPQLLVYNAKTLAEGVPSRFSGSGSGTQFSLKINSLQPEDFGSYYCQHHYGSPRTFGGGTKLEIK
What is called IC50 is the concentration at which inhibition is half-maximal. Read a low IC50 as higher potency. In test [4], B13 displayed an IC50 of 0.86 nM. Also, the results for the Kd in test [1] and in test [2] were 0.131 nM and 0.183 nM, respectively.
